Results taken from article PMC4682968, “Studies on the Glutathione-Dependent Formaldehyde-Activating Enzyme from Paracoccus denitrificans” (PLoS ONE, 2015).

Target: the molecule itself
Test: SEC; analytical size-exclusion chromatography of wild type non-tagged GFA, calibrated with standard protein samples; apparent Mw = 42 kDa

B1: glutathione-dependent formaldehyde-activating enzyme (GFA) from Paracoccus denitrificans, wild type, non-tagged (enzyme)
chain: GHMVDTSGVKIHPAVDNGIKPAQPGFAGGTLHCKCSTNPVRVAVRAQTAHNHVCGCTKCWKPEGAIFSQVAVVGRDALEVLEGAEKLEIVNAEAPIQRHRCRDCGVHMYGRIENRDHPFYGLDFVHTELSDEDGWSAPEFAAFVSSIIESGVDPSRMEAIRARLRELGLEPYDALSPPLMDAIATHIAKRSGALAA
notes: an additional glycine residue and a histidine residue left on the N-terminus after TEV protease removal of the His-Tag; Expressed from a modified pET16b plasmid with a TEV site between the His-Tag and the insert; also called GFA WT; wild type non-tagged GFA; not shown: His-Tag, N-terminal, cleaved
- stoichiometry N: 2
